Test results from US20210284749A1 (ABL BIO, published 2021).
Where a chain is given by its changes, count along the chain named.

B1: anti-BCMA IgG antibody B58 (antibody, V domains shown)
VH: EVQLLESGGGLVQPGGSLRLSCAASGFTFSNYDMSWVRQAPGKGLEWVSWIYPSDSSIYYADSVKGRFTISRDNSKNTLYLQMNSLRAEDTAVYYCARGPFANKYRQFDYWGQGTLVTVSS
VL: QSVLTQPPSASGTPGQRVTISCSGSSSNIGSNSVSWYQQLPGTAPKLLIYADSKRPSGVPDRFSGSKSGTSASLAISGLRSEDEADYYCGSWDYSLSGYVFGGGTKLTVL
notes: also called B58 antibody
B2: anti-BCMA IgG antibody 5B5 (antibody, V domains shown)
VH: EVQLLESGGGLVQPGGSLRLSCAASGFTFSGHYWSWVRQAPGKGLEWVSTVSGSGGDTFYADSVKGRFTISRDNSKNTLYLQMNSLRAEDTAVYYCARGHSVMDVWGQGTLVTVSS
VL: EIVLTQSPGTLSLSPGERATLSCRASQGIDSYVAWYQQKPGQAPRLLIYDASLRATGIPDRFSGSGSGTDFTLTISRLEPEDFAVYYCQQYNSWPITFGQGTKLEIKR
notes: also called 5B5 antibody

Experiments:
[1] = target: T1, recombinant human BCMA (ELISA antigen, construct not specified) (human, UniProt Q02223 1-54); test: ELISA, 100 ng coated antigen
T1 construct: Fc 1-51; Fc/His 1-51; Fc 4-48) was coated in these ELISAs; also called recombinant BCMA; recombinant protein
T1 sequence: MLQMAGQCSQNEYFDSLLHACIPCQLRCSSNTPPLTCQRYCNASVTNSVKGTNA
Procedure: (§1) 100 ng of human, monkey, mouse, and rat BCMA antigens prepared in Example 1.1 were coated on the bottom of the plate, and then coated with 3% BSA to block nonspecific binding. Using the selected anti-BCMA IgG antibodies as primary antibodies, and the anti-human Fab HRP (1:20000 dilution) as a secondary antibody, ELISA assay was performed as described in Example 1.3.
(§2) Absorbancies at 450 nm measured with a microplate reader are shown in FIG. 3, and half maximal effective concentrations (EC₅₀) (nM) are shown in Table 9.

human BCMA-Fc/His (1-51) = target: T2, human BCMA-Fc/His (1-51) (human, UniProt Q02223 1-51); test: BLI (Octet), antigen on Ni-NTA biosensor, IgG in solution
T2 construct: also called recombinant human BCMA-Fc/His; recombinant human BCMA-His (Sino Biological Inc.); not shown: Fc region; C-terminal His tag
T2 sequence: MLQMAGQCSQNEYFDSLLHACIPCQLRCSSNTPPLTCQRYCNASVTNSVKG
Procedure: A 96-well black microplate was mounted on a Biosensor tray case, 200 μl of 1XKB was added to each of the 8 wells, and then 8 Ni-NTA biosensors (Fortebio) were inserted thereto for hydration for 10 minutes. For antigen fixation, 5 μg/ml of recombinant human BCMA-His (Sino Biological Inc.) was diluted using 1XKB. Experiments were performed with a threshold of 0.5 to 1.0 nm, and Octet Data Acquisition 9.0 software was activated to create an Octet program template. The first step was for Baseline 1, the second step was for loading, and the threshold was fixed to 0.5 to 1.0 nm. In the third step, which was for Baseline 2, association for 5 minutes and dissociation for 20 minutes were performed. A plate temperature was fixed to 30° C., and the prepared buffer solution was placed in order into a new 96-well black microplate according to the Octet program template. 200 μl of 1XKB used as Baseline 1 and recombinant human BCMA-Fc/His which is an antigen to be loaded were diluted to 5 μg/ml, and 200 μl of the dilution was added thereto. After adding 200 μl of 1XKB used as Baseline 2, 200 μl of the antibody to be reacted with the antigen was dispensed, and the instrument was operated. After completion of the experiment, an association constant (kon), a dissociation constant (kdis), and an equilibrium dissociation constant (KD) for each antibody were analyzed and calculated with Octet Analysis 9.0 software.

[2] = target: T3, rat BCMA (1-49) fused to the Fc region of human IgG1 (rat; human); test: ELISA on 100 ng coated rat BCMA, antibody titrated, anti-human Fab HRP, absorbance 450 nm
T3 construct: Sino Biological Inc. 80156-R01H; also called 80156-R01H; not shown: Fc region of human IgG1
T3 chain: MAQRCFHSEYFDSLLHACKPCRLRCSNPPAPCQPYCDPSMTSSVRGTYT
Procedure: as §1, §2

[3] = target: T1, recombinant human BCMA (ELISA antigen, …); test: ELISA on 100 ng coated human BCMA, antibody titrated, anti-human Fab HRP, absorbance 450 nm
Procedure: as §1, §2

[4] = target: T4, mouse BCMA (1-49) fused to the Fc region of human IgG1 (mouse; human, UniProt O88472 1-49); test: ELISA on 100 ng coated mouse BCMA, antibody titrated, anti-human Fab HRP, absorbance 450 nm
T4 construct: Sino Biological Inc. 50076-M01H; also called 50076-M01H; not shown: Fc region of human IgG1
T4 chain: T3 chain with R4Q, R22H, P31T, M40V, R45K
Procedure: as §1, §2

[5] = target: T1, recombinant human BCMA (ELISA antigen, …); test: ELISA on coated recombinant human BCMA, antibody titrated, HRP anti-Fab detection, absorbance 450 nm
Procedure: Specific binding abilities of the anti-BCMA IgG antibodies isolated in Example 1.4 to recombinant BCMA protein were analyzed by ELISA.
Using recombinant human BCMA or monkey BCMA as an antigen, and HRP-conjugated Fab polychronal antibody reagent (Pierce, 31414) as a secondary antibody, ELISA was performed as described in Example 1.3.

[6] = target: T5, human BCMA expressed on cell surface (H929, OPM-2, CHOK1-hBCMA cells) (human, UniProt Q02223 1-184); test: FACS on H929 cells, 10 µg/ml antibody, anti-human Fc-FITC; open histogram shifted right of the filled control
T5 construct: also called cell-surface BCMA; BCMA on cell surface
T5 sequence: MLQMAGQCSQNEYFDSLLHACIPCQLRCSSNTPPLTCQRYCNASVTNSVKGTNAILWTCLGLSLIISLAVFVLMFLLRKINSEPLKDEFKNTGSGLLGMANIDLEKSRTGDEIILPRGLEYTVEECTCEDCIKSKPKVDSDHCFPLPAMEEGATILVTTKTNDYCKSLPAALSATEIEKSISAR
Procedure: (§3) Multiple myeloma cancer cells H929 (ATCC, CRL9068™) and OPM-2 cell line (DSMZ, ACC 50), which are known to express BCMA, were prepared, and human BCMA-overexpressed CHOK1-hBCMA cell line (constructed by ABIBio) were prepared.
(§4) 10 μg/ml of the seven IgG antibodies (B58, 5A6, 5D5, 5B5, 1H, 2G, and 5G) purified in Example 1.4 was added to the prepared cells, incubated at 4° C. for 1 hour, and then washed two times with a PBS buffer solution. The anti-human Fc-FITC was diluted in 1:400, incubated at 4° C. for 1 hour, and then washed with a PBS buffer solution. These processes were repeated. In FIGS. 2A and 2B, MFI indicates mean fluorescence intensity.

[7] = target: T5, human BCMA expressed on cell surface …; test: FACS on OPM-2 cells, 10 µg/ml antibody, anti-human Fc-FITC; open histogram shifted right of the filled control
Procedure: as §3, §4

[8] = target: T6, human BCMA-Fc (R&D system, 193-BC-050) (human, UniProt Q02223 1-54, limits assumed); test: competition ELISA on coated human BCMA-Fc; antibody titrated and mixed with 200 ng/ml BAFF, bound BAFF detected, absorbance 450 nm
T6 construct: Bought construct; not shown: Fc part
T6 sequence: T1 sequence
Procedure: Specifically, human BCMA-Fc (R&D system, 193-BC-050) was diluted using a PBS buffer, and then 100 ng of the dilution per well was coated on the ELISA plate. After the coating, the plate was emptied, and 100 μl of PBST containing 1% BSA was added to each well and incubated at 37° C. for 2 hours. The antibodies diluted at a concentration of 50 μg/ml to 0.00028 μg/ml were mixed with 10 ng/ml of APRIL protein (R&D, 5860-AP-010/CF) or 200 ng/ml of BAFF (R&D, 2149-BF-010/CF). An IgG1 antibody was used as a negative control, and a J6MO antibody was used as a comparative group.
Using anti-HA-HRP (Roche, 12013819001) or anti-His-HRP (Roche, 11965085001) as secondary antibodies, ELISA assay was performed as described in Example 1.4(1). As a comparative group, anti-BCMA monoclonal antibody J6MO (GSK) was used.

[9] = target: T7, monkey (Rhesus) BCMA (1-53) fused to the Fc region of human IgG1 (monkey (Rhesus); human, UniProt Q02223 1-54); test: BLI (Octet), monkey BCMA
T7 construct: Sino Biological Inc. 90103-C02H; also called monkey BCMA; Monkey BCMA (1-53); not shown: Fc region of human IgG1

[10] = target: T7, monkey (Rhesus) BCMA (1-53) fused to …; test: ELISA, 100 ng coated antigen
Procedure: as §1, §2

[11] = target: T4, mouse BCMA (1-49) fused to the Fc …; test: ELISA, 100 ng coated antigen
Procedure: as §1, §2

[12] = target: T3, rat BCMA (1-49) fused to the Fc region …; test: ELISA, 100 ng coated antigen
Procedure: as §1, §2

[13] = target: T7, monkey (Rhesus) BCMA (1-53) fused to …; test: ELISA on 100 ng coated rhesus BCMA, antibody titrated, anti-human Fab HRP, absorbance 450 nm
Procedure: as §1, §2

Binder	EC50 [1] [nM]	Kd (human BCMA-Fc/His (1-51)) [nM]	koff (human BCMA-Fc/His (1-51)) [s⁻¹]	kon (human BCMA-Fc/His (1-51)) [M⁻¹ s⁻¹]	binding result [2]	EC50 (read off the curve) [3] [µg/mL]	binding result [4]	EC50 (read off the curve) [5] [µg/mL]	MFI [6]	MFI [7]	IC50 (read off the curve) [8] [nM]	Kd [9] [nM]	koff [9] [s⁻¹]	kon [9] [M⁻¹ s⁻¹]	EC50 [10] [nM]	EC50 [11] [nM]	EC50 [12] [nM]	EC50 (read off the curve) [2] [µg/mL]	EC50 (read off the curve) [4] [µg/mL]	EC50 (read off the curve) [13] [µg/mL]
B1	79	0.0273	2e-05	735000	no binding (tested: about 30 µg/ml)	~0.01	no binding (tested: about 30 µg/ml)	~0.005	80.7	23.6	~5									
B2	63	0.202	0.00025	1.24e+06		~0.01		~0.1	37.4	20.9		0.461	0.00221	4.79e+06	82	110	65	~0.02	~0.01	~0.01
